From the DeepSol protein solubility set

Assay: soluble on expression in E. coli; label from the status in PepcDB or PDB records

Q: Which “soluble on expression in E. coli” value does the source give for “MDDLSPDSALPPAGSAQDNDAPRQLVVCIDGTSNRFGDQPTNVVRLYRSLSRDPRRVLAYYDQGVGTFGLKETLFEWQKFPSRIAGLAFGWGLKRNVEGAYRFLAEHYRPGDQIFLFGFSRGAYAVRVLAAMLRAVGLIDAHQPHLFDYAWTLLTTRMPPRDEDKRAGTRRRGPDFGLLGRFRKVFGRQVKVHFLGLFDTVTSVGWVYDPLTVPYSSNNEMVDVVRQALAIDECRCFFRQNLWFGEKDRKSDVLQVWFPGMHSDVGGGYAPKDSRLALVAFTWMLGEALEAGLHVDPARSRDQLRARSKQGPDPTAPILPVMTRPWRLAEWLPLLVWDRRSGNRAWRWSRGRPRSRPLEPVGQETRVKLHRSVQRRLDECPDYRPCNLPALERCDLIDDSPLLDGYRLEHHHHHH” here?
A: not soluble

Q: Which “soluble on expression in E. coli” value does the source give for “MDDRLYAPATERNRDAILAVLKDELRSPGTVLEIASGTGEHGAYFAPQLPDYFWQPSDPNEESRRSIAAWRSHVNAPNLGEAIAIDVTRSDWVESVPEFPQPVVAIAAINLIHISPWEATLGLFAGAKQLLSVDGLIYLYGAYKRGGQHTAPSNEAFDASLQARNPAWGARNLEDVTAVAEAEQFRLDRIVEMPSNNLSVCFRAIALEHHHHHH” here?
A: soluble

Q: For “MDDSMDYPDRDGDDLDQFQGTARSQVVQNQPHDEEVNLSESESFAGADEPPAAPRDASLIESHDMDEGPAAPARTLSPTGYEAGKHAPGGIANSDEAPPGAYNAQEYKHLNVGEDVRELFSYIGRYKPQTVELDTRIKPFIPDYIPAVGGIDEFIKVPRPDTKPDYLGLKVLDEPAAKQSDPTVLTLQLRQLSKEAPGAKADMVGRLEHTDENKAKKIQQWIASINDIHKAKPAATVNYSKRMPEIEALMQEWPPEVETFLKTMHMPSGDVELDIKTYARLVCTLLDIPVYDDPVESLHVLFTLYLEFKNNPIFRQHMEMENKLDGMSGGGGGMMGGGADVLGL”, which “soluble on expression in E. coli” value is on record?
A: not soluble

Q: For “MDDVRLHAIYQDITRDYLPPASLNHLMLLSKQTQHKLSFKSAPIPDLQPFFKNFTSKTPGSAKESPCSSTAKISSSISISSQCIFNVVILSFVFTSQNLNLPSHPALHNVSPESLNDRLMTQLECANSPRLACELWVGTDKEPILSPNSVSYRVMQPNEFES”, which “soluble on expression in E. coli” value is on record?
A: soluble

Q: With “MDEAYKMRCDWYHHGELVSGGESESKFSQLNDEVVELYQAAEYLDEEFAGMVHLGEIVERDDKKEDEFLAKLADAETPLYPSCFNHSKLSAIMSLFTLKTKNGWSDKSHNDLLETLPEMLLEDNVLHSSLYEVKKFLKSFDMG” as the sequence, how does the “soluble on expression in E. coli” value read?
A: not soluble

Q: With “MDEFGSLLGDSPRSSVNNWEKGVSIPKRDKLEKIAILGNMLPDQILYGRADEYLYDLIDSSFNVKFSDNILYEIFESVPPEKRSYDDLMWLAVAKYFIDNGTYGKVVGKFNYISMLGIPNLYTGSYQNEFIEQREDYKQQEVKYYVYADPEKNILHIMPFVPNEKNIELLYEFPELLEQQADHEVFTANFEQIGLTLKGSTIVYYGIDKQKLEAKTQAYKYDEAVDLYRIAQLPETLSMFDDEIQKQISFLKSK” as the sequence, how does the “soluble on expression in E. coli” value read?
A: not soluble

Q: With “MDEKIAPHLEELTRALGDLEKTGIRAEFYKLLAFRVSPEVAKETILRKFGGKRKILKVKDLSASLKNFEITGRILDMGEKALRPQEGVQDGPSKLYTGILADETGSVMFSSWKELPGSIGDVINIKNAYTRLWQNRIRLSIGEQSLVSGVSDSSLPGLSELSKTPLKKLIEIGSADFSVSTTACVLQLSHREVPVRGKQSKVISGVLADETARLPFTAWVELPGIDIGSIIRIEGAQIRMFRGMPSINFISSTRISPVPAEEAEKLAFTFESSSKDPSPIKIEEIASRDSMFDVVTAGNIVSVRPGSGIISRCPECSRVIQKSNCRVHGRVEGIRDMRIKAVLDDGTGAMSVMFPRELAEIIYGKTLEEAEQLMFSDISKDAVYEDLRRFLTGRYLAVRGNSSNGEYGASFVAENAWVPEDDLAVRVVELLRRLGPDEGEQSSEVSREGISFALEHHHHHH” as the sequence, how does the “soluble on expression in E. coli” value read?
A: soluble

Q: For “MDELLNRLRQTWHSTIPVSEFMQIAPLSFTDGELSVSAPLAPNINLHHTMFAGSIYTIMTLTGWGMVWLQQQLLNVDGDIVLADAHIRYLAPVTSAPEVKVRWPDTNLSPLQRGRKAKVKLEVQLFCDGKLCAQFDGLYVSVPKMLEHHHHHH”, which “soluble on expression in E. coli” value is on record?
A: soluble
